Results taken from patent US20120178701A1 (PALATIN TECHNOLOGIES, published 2012).
Numbered stars: 1 amine (or outer) side, 2 acyl side, 3 side chain; on linkers, the order of the positions; unused ones are H or OH. Bridge positions count the residues as written; N and C are the ends. Square brackets hold non-standard residues; d marks the D form. * marks the point of attachment. Hyp(Bzl) = O-benzyl-hydroxyproline, O=C([C@@H]1C[C@@H](OCc2ccccc2)CN1[*:1])[*:2]; Thr(Bzl) = O-benzyl-threonine, C[C@@H](OCc1ccccc1)[C@H](N[*:1])C(=O)[*:2]; Pro(trans-4-NH2) = O=C([C@@H]1C[C@@H](N[*:3])CN1[*:1])[*:2]; Phe(3-CONH2) = NC(=O)c1cccc(C[C@H](N)C(=O)O)c1; Phe(4-CONH2) = NC(=O)c1ccc(C[C@H](N)C(=O)O)cc1; Met(O2) = CS(=O)(=O)CC[C@H](N)C(=O)O; Hyp = O=C(O)[C@@H]1C[C@@H](O)CN1; Met(O) = CS(=O)CC[C@H](N)C(=O)O; Cit = NC(=O)NCCC[C@H](N)C(=O)O; Orn = NCCC[C@H](N)C(=O)O; Dab = NCC[C@H](N)C(=O)O; Pentanoyl = CCCCC(=O)*

molecular target: T1, human recombinant melanocortin-4 receptor (human, UniProt P32245 1-332); experiment: competitive inhibition of Eu-NDP-α-MSH (TRF), hMC4-R HEK-293 membranes
T1 construct: whole, on cells; cAMP assays used the whole cells; also called hMC4-R; MC4-R
T1 sequence (P32245 whole entry): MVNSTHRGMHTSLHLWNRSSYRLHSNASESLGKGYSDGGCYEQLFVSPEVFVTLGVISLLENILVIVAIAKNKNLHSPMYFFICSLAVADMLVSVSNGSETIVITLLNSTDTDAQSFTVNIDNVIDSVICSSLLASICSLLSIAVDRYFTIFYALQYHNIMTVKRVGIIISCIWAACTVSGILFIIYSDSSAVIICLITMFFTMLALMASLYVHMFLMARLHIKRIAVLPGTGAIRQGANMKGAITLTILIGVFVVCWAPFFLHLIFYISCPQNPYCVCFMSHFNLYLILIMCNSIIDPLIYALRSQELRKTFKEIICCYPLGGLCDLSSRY
Protocol: After incubation for 90 minutes at 37° C., the reaction was stopped by filtration over AcroWell 96-well filter plates (Pall Life Sciences). The filter plates were washed 4 times with 200 μL of ice-cold phosphate-buffered saline. DELFIA Enhancement solution (PerkinElmer Life Sciences) was added to each well. The plates were incubated on a shaker for 15 minutes and read at 340 nm excitation and 615 nm emission wavelengths. Each assay was conducted in duplicate and mean values were utilized. Ki values were determined by curve-fitting with Graph-Pad Prism® software using a one-site fixed-slope competition binding model.
(§1) 9.1 Peptides of the following structures were synthesized by the general methods described above, and averaged MC4-R Ki values for peptides were determined as indicated. […] Ki values marked “ND” were not determined.

| Binder | Ki [nM] |
| --- | --- |
| Ac-RD[Hyp(Bzl)][dF]RWK-NH2 (lactam 2-7, also called peptide No. 15) [Ac-Arg-cyclo(Asp-Hyp(Bzl)-D-Phe-Arg-Trp-Lys)-NH2] | 0.7 |
| Ac-RDA[dF]RWK-NH2 (lactam 2-7, also called peptide No. 9) [Ac-Arg-cyclo(Asp-Ala-D-Phe-Arg-Trp-Lys)-NH2] | 19 |
| RDAFRWK (HELM PEPTIDE1{[ac].R.D.A.[dF].R.W.K}$PEPTIDE1,PEPTIDE1,3:R3-8:R3$$$V2.0; SMILES CC(=O)N[C@@H](CCCNC(=N)N)C(=O)N[C@H]1CC(=O)NCCCC[C@@H](C(=O)O)NC(=O)[C@H](Cc2c[nH]c3ccccc23)NC(=O)[C@H](CCCNC(=N)N)NC(=O)[C@@H](Cc2ccccc2)NC(=O)[C@H](C)NC1=O, also called peptide No. 52) [Ac-Arg-cyclo(Asp-Ala-D-Phe-Arg-Trp-Lys)-OH] | 144 |
| RDAFKWK (HELM PEPTIDE1{[ac].R.D.A.[dF].K.W.K.[am]}$PEPTIDE1,PEPTIDE1,3:R3-8:R3$$$V2.0; SMILES CC(=O)N[C@@H](CCCNC(=N)N)C(=O)N[C@H]1CC(=O)NCCCC[C@@H](C(N)=O)NC(=O)[C@H](Cc2c[nH]c3ccccc23)NC(=O)[C@H](CCCCN)NC(=O)[C@@H](Cc2ccccc2)NC(=O)[C@H](C)NC1=O, also called peptide No. 8) [Ac-Arg-cyclo(Asp-Ala-D-Phe-Lys-Trp-Lys)-NH2] | 3020 |

molecular target: T1, human recombinant melanocortin-4 …; experiment: competitive inhibition of [I125]-NDP-α-MSH, hMC4-R HEK-293 membranes
Protocol: A competitive inhibition binding assay is performed using membrane homogenates prepared from HEK-293 cells that express recombinant hMC4-R, hMC3-R, or hMC5-R, and from B-16 mouse melanoma cells (containing endogenous MC1-R). In some instances, HEK-293 cells that express recombinant hMC1-R were employed. In the examples that follow, all MC3-R, MC4-R and MC5-R values are for human recombinant receptors. […] Membrane homogenates were incubated with 0.2 nM (for hMC4-R) 0.4 nM (for MC3-R and MC5-R) or 0.1 nM (for mouse B16 MC1-R or hMC1-R) [I¹²⁵]-NDP-α-MSH (Perkin Elmer) and increasing concentrations of test peptides of the present invention in buffer containing 25 mM HEPES buffer (pH 7.5) with 100 mM NaCl, 2 mM CaCl₂, 2 mM MgCl₂, 0.3 mM 1,10-phenanthroline, and 0.2% bovine serum albumin. After incubation for 60 minutes at 37° C., the assay mixture was filtered and the membranes washed three times with ice-cold buffer. Filters were dried and counted in a gamma counter for bound radioactivity. […] Maximal specific binding (100%) was defined as the difference in radioactivity (cpm) bound to cell membranes in the absence and presence of 1 μM NDP-α-MSH. […] Each assay was conducted in triplicate and the actual mean values are described, with results less than 0% reported as 0%. Ki values for test peptides of the present invention were determined using Graph-Pad Prism® curve-fitting software.
as §1

| Binder | Ki [nM] |
| --- | --- |
| Ac-RDN[dF]RWK-OH (lactam 2-7, also called peptide No. 56) [Ac-Arg-cyclo(Asp-Asn-D-Phe-Arg-Trp-Lys)-OH] | 100 |
| Ac-RDQ[dF]RWK-OH (lactam 2-7, also called peptide No. 57) [Ac-Arg-cyclo(Asp-Gln-D-Phe-Arg-Trp-Lys)-OH] | 115 |
| Ac-RDK[dF]RWK-NH2 (lactam 2-7, also called peptide No. 2) [Ac-Arg-cyclo(Asp-Lys-D-Phe-Arg-Trp-Lys)-NH2] | 30 |
| Ac-RD[Met(O2)][dF]RWK-NH2 (lactam 2-7, also called peptide No. 77) [Ac-Arg-cyclo(Asp-Met-(O2)-D-Phe-Arg-Trp-Lys)-NH2] | 7 |
| Ac-RD[Phe(4-CONH2)][dF]RWK-NH2 (lactam 2-7, also called peptide No. 50) [Ac-Arg-cyclo(Asp-Phe(4-(C(═O)-NH2))-D-Phe-Arg-Trp-Lys)-NH2] | 30 |
| Ac-RD[Phe(3-CONH2)][dF]RWK-NH2 (lactam 2-7, also called peptide No. 49) [Ac-Arg-cyclo(Asp-Phe-(3-(C(═O)-NH2))-D-Phe-Arg-Trp-Lys)-NH2] | 15 |
| Ac-RDS[dF]RWK-NH2 (lactam 2-7, also called peptide No. 3) [Ac-Arg-cyclo(Asp-Ser-D-Phe-Arg-Trp-Lys)-NH2] | 172 |
| Ac-RD[Thr(Bzl)][dF]RWK-NH2 (lactam 2-7, also called peptide No. 14) [Ac-Arg-cyclo(Asp-Thr(Bzl)-D-Phe-Arg-Trp-Lys)-NH2] | 1 |
| Ac-R[Orn]H[dF]RWE-NH2 (lactam 2-7, also called peptide No. 75) [Ac-Arg-cyclo(Orn-His-D-Phe-Arg-Trp-Glu)-NH2] | 0.6 |
| Ac-RKQ[dF]RWD-NH2 (lactam 2-7, also called peptide No. 151) [Ac-Arg-cyclo(Lys-Gln-D-Phe-Arg-Trp-Asp)-NH2] | 4 |
| RXQFRWX (N-acetyl; X2 = hGlu; D-Phe 4; X7 = Dab; side-chain lactam hGlu2-Dab7; C-terminal amide, also called peptide No. 147) [Ac-Arg-cyclo(hGlu-Gln-D-Phe-Arg-Trp-Dab)-NH2] | 20 |
| RXMFRWX (HELM PEPTIDE1{[ac].R.[O=C([C@H](CCCC(=O)[*:3])N[*:1])[*:2]].[CS(=O)(=O)CC[C@H](N[*:1])C(=O)[*:2]].[dF].R.W.[Dab].[am]}$PEPTIDE1,PEPTIDE1,3:R3-8:R3$$$V2.0; SMILES CC(=O)N[C@@H](CCCNC(=N)N)C(=O)N[C@H]1CCCC(=O)NCC[C@@H](C(N)=O)NC(=O)[C@H](Cc2c[nH]c3ccccc23)NC(=O)[C@H](CCCNC(=N)N)NC(=O)[C@@H](Cc2ccccc2)NC(=O)[C@H](CCS(C)(=O)=O)NC1=O) [Ac-Arg-cyclo(hGlu-Met(O2)-D-Phe-Arg-Trp-Dab)-NH2] | 4 |
| Ac-RE[Pro(trans-4-NH2)][dF]RW[Orn]-NH2 (lactam 2-7, also called peptide No. 112) [Ac-Arg-Cyclo(Glu-Pro(4R-NH2)-D-Phe-Arg-Trp-Orn)-NH2] | 6 |
| Ac-REN[dF]RW[Orn]-OH (lactam 2-7, also called peptide No. 91) [Ac-Arg-cyclo(Glu-Asn-D-Phe-Arg-Trp-Orn)-OH] | 167 |
| Ac-REK[dF]RW[Orn]-NH2 (lactam 2-7) [Ac-Arg-cyclo(Glu-Lys-D-Phe-Arg-Trp-Orn)-NH2] | 15 |
| Ac-RE[Met(O2)][dF]RW[Orn]-NH2 (lactam 2-7, also called peptide No. 100) [Ac-Arg-cyclo(Glu-Met(O2)-D-Phe-Arg-Trp-Orn)-NH2] | 8 |

| Binder | Ki [nM] |
| --- | --- |
| Ac-RE[Met(O)][dF]RW[Orn]-NH2 (lactam 2-7, also called peptide No. 111) [Ac-Arg-cyclo(Glu-Met(═O)-D-Phe-Arg-Trp-Orn)-NH2] | 9 |
| RKXFRWD (HELM PEPTIDE1{[ac].R.K.[Dab].[dF].R.W.D}$PEPTIDE1,PEPTIDE1,3:R3-8:R3$$$V2.0; SMILES CC(=O)N[C@@H](CCCNC(=N)N)C(=O)N[C@H]1CCCCNC(=O)C[C@@H](C(=O)O)NC(=O)[C@H](Cc2c[nH]c3ccccc23)NC(=O)[C@H](CCCNC(=N)N)NC(=O)[C@@H](Cc2ccccc2)NC(=O)[C@H](CCN)NC1=O, also called peptide No. 131) [Ac-Arg-cyclo(Lys-Dab-D-Phe-Arg-Trp-Asp)-OH] | 35 |
| QDXFRWK (HELM PEPTIDE1{[ac].Q.D.[Dab].[dF].R.W.K.[am]}$PEPTIDE1,PEPTIDE1,3:R3-8:R3$$$V2.0; SMILES CC(=O)N[C@@H](CCC(N)=O)C(=O)N[C@H]1CC(=O)NCCCC[C@@H](C(N)=O)NC(=O)[C@H](Cc2c[nH]c3ccccc23)NC(=O)[C@H](CCCNC(=N)N)NC(=O)[C@@H](Cc2ccccc2)NC(=O)[C@H](CCN)NC1=O, also called peptide No. 142) [Ac-Gln-cyclo(Asp-Dab-D-Phe-Arg-Trp-Lys)-NH2] | 15 |
| Ac-RE[Orn](Ac)[dF]RW[Orn]-NH2 (lactam 2-7, also called peptide No. 149) [Ac-Arg-cyclo(Glu-Orn(Acetyl)-D-Phe-Arg-Trp-Orn)-NH2] | 7 |
| Pentanoyl-EH[dF]R[Dab]W-NH2 (lactam 1-5, also called peptide No. 153) [n-C4H9-CO-cyclo(Glu-His-D-Phe-Arg-Dab)-Trp-NH2] | 365 |
| XXNFRWE (HELM PEPTIDE1{[ac].[Orn].[Orn].N.[dF].R.W.E.[am]}$PEPTIDE1,PEPTIDE1,3:R3-8:R3$$$V2.0; SMILES CC(=O)N[C@@H](CCCN)C(=O)N[C@H]1CCCNC(=O)CC[C@@H](C(N)=O)NC(=O)[C@H](Cc2c[nH]c3ccccc23)NC(=O)[C@H](CCCNC(=N)N)NC(=O)[C@@H](Cc2ccccc2)NC(=O)[C@H](CC(N)=O)NC1=O, also called peptide No. 158) [Ac-Orn-cyclo(Orn-Asn-D-Phe-Arg-Trp-Glu)-NH2] | 50 |
| RDHXRWK (N-acetyl; X4 = D-Nal 1 (D-3-(1-naphthyl)alanine); side-chain lactam Asp2-Lys7; C-terminal amide, also called peptide No. 19) [Ac-Arg-cyclo(Asp-His-D-Nal 1-Arg-Trp-Lys)-NH2] | 3 |
| Ac-RD[Hyp(Bzl)][dF]RWK-OH (lactam 2-7, also called peptide No. 54) [Ac-Arg-cyclo(Asp-Hyp(Bzl)-D-Phe-Arg-Trp-Lys)-OH] | 3 |
| Ac-RD[Pro(Bn)][dF]RWK-OH (lactam 2-7, also called peptide No. 55) [Ac-Arg-cyclo(Asp-Pro(Bn)-D-Phe-Arg-Trp-Lys)-OH] | 12 |
| Ac-RD[Hyp][dF]RWK-NH2 (lactam 2-7, also called peptide No. 79) [Ac-Arg-cyclo(Asp-Hyp-D-Phe-Arg-Trp-Lys)-NH2] | 4 |
| Ac-RD[Pro(trans-4-NH2)][dF]RWK-NH2 (lactam 2-7, also called peptide No. 80) [Ac-Arg-cyclo(Asp-Pro(4R-NH2)-D-Phe-Arg-Trp-Lys)-NH2] | 5 |
| Ac-REH[dF]RW[Orn]-OH (lactam 2-7, also called peptide No. 82) [Ac-Arg-cyclo(Glu-His-D-Phe-Arg-Trp-Orn)-OH] | 4 |
| Ac-RE[Orn][dF]RW[Orn]-OH (lactam 2-7, also called peptide No. 90) [Ac-Arg-cyclo(Glu-Orn-D-Phe-Arg-Trp-Orn)-OH] | 9 |
| H-R[Orn]H[dF]RWE-NH2 (lactam 2-7, also called peptide No. 99) [Arg-cyclo(Orn-His-D-Phe-Arg-Trp-Glu)-NH2] | 6 |
| Ac-RDK[dF][Cit]WK-NH2 (lactam 2-7, also called peptide No. 116) [Ac-Arg-cyclo(Asp-Lys-D-Phe-Cit-Trp-Lys)-NH2] | 873 |
| RKXFRWD (HELM PEPTIDE1{[ac].R.K.[Dab].[dF].R.W.D.[am]}$PEPTIDE1,PEPTIDE1,3:R3-8:R3$$$V2.0; SMILES CC(=O)N[C@@H](CCCNC(=N)N)C(=O)N[C@H]1CCCCNC(=O)C[C@@H](C(N)=O)NC(=O)[C@H](Cc2c[nH]c3ccccc23)NC(=O)[C@H](CCCNC(=N)N)NC(=O)[C@@H](Cc2ccccc2)NC(=O)[C@H](CCN)NC1=O, also called peptide No. 121) [Ac-Arg-cyclo(Lys-Dab-D-Phe-Arg-Trp-Asp)-NH2] | 0.4 |
